From patent US12605469B2, “Tumor specific antibody conjugates and uses therefor” (The University of North Carolina at Charlotte, priority 2019, dated 2026) come the findings set out here.

The chains are these.
B1: TAB-004 antibody-conjugated mesoporous silica nanoparticle (antibody, V domains shown)
VH: EVQLQQSGGERATPGASVKMSCKTSGYTFTNYWMHWVKQRPGQGLEWIGYINPSSGYTQYNQKFKDKATLTADKSSSTAYIQLSSLTSEDSAVYYCSTYYGDYLFPYWGQGTLVTVSA
VL: DVLMTQTPLSLPVSLGDQASISCRSSQDIVYGNGNTYLEWYLQKPGQSPKLLIYKVSNRFSGVPDRFSGSGSGTDFTLKISRVEAEDLGVYYCFQGSHVPYTFGGGTKLEIKR
modifications: antibody coupled by EDC to the carboxylic acid groups of a PEG-2K linker on an FITC-labelled mesoporous silica nanoparticle; site not stated
notes: Many copies of TAB-004 on one particle; also called TAB-004-MSN
B2: Humanized HC1 + LC1 (antibody, human IgG2, kappa, V domains shown)
VH: QVQLVQSGAEVKKPGASVKVSCKASGYTFTNYWMHWVRQAPGQGLEWMGYINPSSGYTQYNQKFQGRVTMTRDTSTSTVYMELSSLRSEDTAVYYCSTYYGDYLFPYWGQGTLVTVSS
VL: DVVMTQSPLSLPVTLGQPASISCRSSQDIVYGNGNTYLEWFQQRPGQSPRLLIYKVSNRFSGVPDRFSGSGSGTDFTLKISRVEAEDVGVYYCFQGSHVPYTFGQGTKLEIKR
notes: also called H6245 + L6245
B3: Humanized HC2 + LC1 (antibody, human IgG2, kappa, V domains shown)
VH: QVQLVQSGAEVKKPGASVKVSCKASGYTFTNYWMHWVRQAPGQGLEWMGYINPSSGYTQYNQKFQGRVTMTADTSTSTVYMELSSLRSEDTAVYYCSTYYGDYLFPYWGQGTLVTVSS
VL: DVVMTQSPLSLPVTLGQPASISCRSSQDIVYGNGNTYLEWFQQRPGQSPRLLIYKVSNRFSGVPDRFSGSGSGTDFTLKISRVEAEDVGVYYCFQGSHVPYTFGQGTKLEIKR
notes: Listing: IgG2 heavy chain; also called H6246 + L6245
B4: Humanized HC3 + LC1 (antibody, human IgG2, kappa, V domains shown)
VH: EVQLVQSGAEVKKPGASVKVSCKASGYTFTNYWMHWVRQAPGQGLEWMGYINPSSGYTQYNQKFQGWVTMTADTSISTAYMELSRLRSDDTAVYYCSTYYGDYLFPYWGQGTLVTVSS
VL: DVVMTQSPLSLPVTLGQPASISCRSSQDIVYGNGNTYLEWFQQRPGQSPRLLIYKVSNRFSGVPDRFSGSGSGTDFTLKISRVEAEDVGVYYCFQGSHVPYTFGQGTKLEIKR
notes: Listing: IgG2 heavy chain; also called H6247 + L6245
B5: Chimeric parental antibody (H4965 + L4965) (antibody, IgG1, V domains shown)
VH: EVQLQQSGGERATPGASVKMSCKTSGYTFTNYWMHWVKQRPGQGLEWIGYINPSSGYTQYNQKFKDKATLTADKSSSTAYIQLSSLTSEDSAVYYCSTYYGDYLFPYWGQGTLVTVSA
VL: DVLMTQTPLSLPVSLGDQASISCRSSQDIVYGNGNTYLEWYLQKPGQSPKLLIYKVSNRFSGVPDRFSGSGSGTDFTLKISRVEAEDLGVYYCFQGSHVPYTFGGGTKLEIKR
notes: also called pp 9854; Chimeric Parental HC
B6: Humanized HC2 + LC2 (antibody, human IgG2, kappa, V domains shown)
VH: QVQLVQSGAEVKKPGASVKVSCKASGYTFTNYWMHWVRQAPGQGLEWMGYINPSSGYTQYNQKFQGRVTMTADTSTSTVYMELSSLRSEDTAVYYCSTYYGDYLFPYWGQGTLVTVSS
VL: DVVMTQSPLSLPVTLGQPASISCRSSQDIVYGNGNTYLEWYQQRPGQSPRLLIYKVSNRFSGVPDRFSGSGSGTDFTLKISRVEAEDVGVYYCFQGSHVPYTFGQGTKLEIKR
notes: Listing: IgG2 heavy chain; also called H6246 + L6246
B7: Humanized HC2 + LC3 (antibody, human IgG2, kappa, V domains shown)
VH: QVQLVQSGAEVKKPGASVKVSCKASGYTFTNYWMHWVRQAPGQGLEWMGYINPSSGYTQYNQKFQGRVTMTADTSTSTVYMELSSLRSEDTAVYYCSTYYGDYLFPYWGQGTLVTVSS
VL: DIVLTQSPLSLPVTLGQPASISCRSSQDIVYGNGNTYLEWYQQRPGQSPRLLIYKVSNRFSGVPDSFSGSGSGTDFTLTISRVEAEDVGIYYCFQGSHVPYTFGEGTKLEIKR
notes: Listing: IgG2 heavy chain; also called H6246 + L6247
B8: Humanized HC1 + LC3 (antibody, human IgG2, kappa, V domains shown)
VH: QVQLVQSGAEVKKPGASVKVSCKASGYTFTNYWMHWVRQAPGQGLEWMGYINPSSGYTQYNQKFQGRVTMTRDTSTSTVYMELSSLRSEDTAVYYCSTYYGDYLFPYWGQGTLVTVSS
VL: DIVLTQSPLSLPVTLGQPASISCRSSQDIVYGNGNTYLEWYQQRPGQSPRLLIYKVSNRFSGVPDSFSGSGSGTDFTLTISRVEAEDVGIYYCFQGSHVPYTFGEGTKLEIKR
notes: Listing: IgG2 heavy chain; also called H6245 + L6247
B9: Humanized HC3 + LC2 (antibody, human IgG2, kappa, V domains shown)
VH: EVQLVQSGAEVKKPGASVKVSCKASGYTFTNYWMHWVRQAPGQGLEWMGYINPSSGYTQYNQKFQGWVTMTADTSISTAYMELSRLRSDDTAVYYCSTYYGDYLFPYWGQGTLVTVSS
VL: DVVMTQSPLSLPVTLGQPASISCRSSQDIVYGNGNTYLEWYQQRPGQSPRLLIYKVSNRFSGVPDRFSGSGSGTDFTLKISRVEAEDVGVYYCFQGSHVPYTFGQGTKLEIKR
notes: Listing: IgG2 heavy chain; also called H6247 + L6246
B10: Humanized HC1 + LC2 (antibody, human IgG2, kappa, V domains shown)
VH: QVQLVQSGAEVKKPGASVKVSCKASGYTFTNYWMHWVRQAPGQGLEWMGYINPSSGYTQYNQKFQGRVTMTRDTSTSTVYMELSSLRSEDTAVYYCSTYYGDYLFPYWGQGTLVTVSS
VL: DVVMTQSPLSLPVTLGQPASISCRSSQDIVYGNGNTYLEWYQQRPGQSPRLLIYKVSNRFSGVPDRFSGSGSGTDFTLKISRVEAEDVGVYYCFQGSHVPYTFGQGTKLEIKR
notes: Listing: IgG2 heavy chain; also called H6245 + L6246
B11: Humanized HC3 + LC3 (antibody, human IgG2, kappa, V domains shown)
VH: EVQLVQSGAEVKKPGASVKVSCKASGYTFTNYWMHWVRQAPGQGLEWMGYINPSSGYTQYNQKFQGWVTMTADTSISTAYMELSRLRSDDTAVYYCSTYYGDYLFPYWGQGTLVTVSS
VL: DIVLTQSPLSLPVTLGQPASISCRSSQDIVYGNGNTYLEWYQQRPGQSPRLLIYKVSNRFSGVPDSFSGSGSGTDFTLTISRVEAEDVGIYYCFQGSHVPYTFGEGTKLEIKR
notes: Listing: IgG2 heavy chain; also called H6247 + L6247

T2 sequence (P15941 other isoform, or with tags, fused parts or gaps limits assumed): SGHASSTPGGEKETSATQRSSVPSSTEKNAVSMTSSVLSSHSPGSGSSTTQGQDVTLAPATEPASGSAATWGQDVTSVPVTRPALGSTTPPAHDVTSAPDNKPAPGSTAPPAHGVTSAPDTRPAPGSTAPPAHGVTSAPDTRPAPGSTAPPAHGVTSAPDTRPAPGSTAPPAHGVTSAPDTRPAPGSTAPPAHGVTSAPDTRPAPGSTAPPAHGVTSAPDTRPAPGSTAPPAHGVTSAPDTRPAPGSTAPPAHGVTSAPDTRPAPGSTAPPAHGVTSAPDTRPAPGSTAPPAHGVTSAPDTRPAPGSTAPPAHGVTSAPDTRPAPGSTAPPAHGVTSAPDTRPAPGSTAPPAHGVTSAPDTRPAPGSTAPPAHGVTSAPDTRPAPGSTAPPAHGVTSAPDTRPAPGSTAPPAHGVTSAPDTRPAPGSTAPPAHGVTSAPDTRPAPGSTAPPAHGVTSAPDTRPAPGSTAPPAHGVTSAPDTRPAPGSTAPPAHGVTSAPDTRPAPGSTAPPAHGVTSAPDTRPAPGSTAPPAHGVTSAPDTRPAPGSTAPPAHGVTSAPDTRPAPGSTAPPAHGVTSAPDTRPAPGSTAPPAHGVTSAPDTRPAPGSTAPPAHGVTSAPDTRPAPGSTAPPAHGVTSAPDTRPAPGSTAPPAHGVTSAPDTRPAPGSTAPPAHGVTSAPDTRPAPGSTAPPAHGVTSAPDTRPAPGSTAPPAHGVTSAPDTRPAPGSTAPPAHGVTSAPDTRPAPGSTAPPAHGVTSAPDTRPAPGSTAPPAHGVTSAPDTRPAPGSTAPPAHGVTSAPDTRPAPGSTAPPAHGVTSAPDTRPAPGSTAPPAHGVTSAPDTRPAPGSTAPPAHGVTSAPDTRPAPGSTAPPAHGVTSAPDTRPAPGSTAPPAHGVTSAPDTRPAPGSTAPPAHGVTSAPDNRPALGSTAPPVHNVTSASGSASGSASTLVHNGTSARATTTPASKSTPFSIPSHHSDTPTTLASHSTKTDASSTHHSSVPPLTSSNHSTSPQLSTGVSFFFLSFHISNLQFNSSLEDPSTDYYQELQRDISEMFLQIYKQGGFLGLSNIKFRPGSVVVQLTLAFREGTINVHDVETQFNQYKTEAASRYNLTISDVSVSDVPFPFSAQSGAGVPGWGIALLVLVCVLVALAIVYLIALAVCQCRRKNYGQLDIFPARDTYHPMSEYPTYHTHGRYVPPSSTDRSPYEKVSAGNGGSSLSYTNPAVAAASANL

The target of the first test is T1, human MUC1, tumor-associated form (tMUC), on tumor cells and tumor tissue (human, UniProt P15941 24-1255, tumor-associated (aberrant) glycosylation, not specified further).
T1 construct: also called tMUC1; tumor-associated glycosylated MUC1
T1 sequence (P15941 other isoform, or with tags, fused parts or gaps limits assumed): as above
The test can be described thus: flow cytometry of particle uptake, 12 hours at 37 °C; KCM cells (human MUC1) against KCKO cells (MUC1 knockout). On the technique in general: A flow cytometer gives signals particle by particle.
As for B1, the “fold increase in uptake by KCM cells as compared to KCKO cells” value is 8 fold.

A further test has as its target T2, human MUC1 antigen in plate ELISA (KCM lysate) (human, UniProt P15941 24-1255, limits assumed, tumor-associated glycosylation, not specified further). The test can be described thus: sandwich ELISA: hybridoma antibody coat, KCM lysate 10 µg/mL, test antibody in 5-fold dilutions, HRP goat anti-human IgG. For orientation: An ELISA detects its analyte on a solid surface through an enzyme-linked reagent.
Consider B2, for which the binding result is recorded as “no binding”.

Regarding B3, the binding result is on record as “no binding”.

Consider B4, for which the binding result is “no binding”.

Another test deals with T2, human MUC1 antigen in plate ELISA (KCM …). In words: sandwich ELISA: hybridoma antibody coat, KCM lysate 10 µg/mL, test antibody in 5-fold dilutions, HRP goat anti-human IgG, OD450.
Broadly, the EC50 is the midpoint of the concentration-response curve. Read a high EC50 as a less potent agent. Take B5: the response was half-maximal at 0.006 µg/mL (EC50).

B6 displayed an EC50 of 0.032 µg/mL. This EC50 is about 5.3-fold higher than that of the molecule before.

In turn, B7 had a 50% effective concentration (EC50) of 0.027 µg/mL.

With B8, the EC50 was determined as 0.051 µg/mL.

For B9, the half-maximal effective concentration (EC50) came out at 0.007 µg/mL.

B10: a half-maximal effect (EC50) was put at 0.055 µg/mL.

B11 registered a concentration giving a half-maximal response (EC50) of 0.004 µg/mL.
